From the supplement of paper PMC7877785
± gives the uncertainty stated by the source.

Assay: self-splicing fitness, log relative to wild type (ln ratio); higher = more splicing; Tetrahymena group I intron in knt gene, E. coli kanamycin selection, DiMSum; sequences stand for … in CUCUCU…GGAGGGAAAAGUUAUCAGGCAUGCACCUGGUAGCUAGUCUUUAAACCAAUAGAUUGCAUCGGUUUAAAAGGCAAGACCGUCAAAUUGCGGGAAAGGGGUCAACAGCCGUUCAGUACCAAGUCUCAGGGGAAACUUUGAGAUGGCCUUGCAAAGGGUAUGGUAAUAAGCUGACGGACAUGGUCCUAACCACGCAGCCAAGUCCUAAGUCAACAGAUCUUCUGUUGAUAUGGAUGCAGUUCACAGACUAAAUGUCGGUCGGGGAAGAUGUAUUCUUCUCAUAAGAUAUAGUCGGACCUCUCCUUAAUGGGAGCUAGCGGAUGAAGUGAUGCAACACUGGAGCCGCUGGGAACUAAUUUGUAUGCGAAAGUAUAUUGAUUAGUUUUGGAGUACUCGUGGUCG
How it was run: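 A randomised library covering all eight P1ex-region intron nucleotides was built with the intron in the knt kanamycin-resistance gene on pET-22b(+) and held in E. coli BL21(DE3). Cells were grown overnight at 37°C or 30°C on LB agar, with or without 25 μg/mL kanamycin, plus 100 μg/mL carbenicillin, 50 μM IPTG and 0.2% rhamnose, and pooled colonies were amplicon-sequenced on an Illumina HiSeq 2500. DiMSum fitness is the error-weighted combination of wild-type-normalised replicate fold changes, kanamycin versus none.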

| Sequence | self-splicing fitness (ln) (37 °C) | self-splicing fitness (ln) (30 °C) |
| --- | --- | --- |
| GGAGAGCAAUAUUACGUGGC | -1.63 ± 0.25 |  |
| GGAGAGCAAUAUUACGUUCU | -3.5 ± 0.39 | -3.27 ± 0.25 |
| GGAGAGCAAUAUUACGUUUG | -2.01 ± 0.38 |  |
| GGAUAGCAAUAUUACGAACA | 0.22 ± 0.15 | -1.95 ± 0.19 |
| GGAUAGCAAUAUUACGAACG | -0.196 ± 0.18 | 0.209 ± 0.14 |
| GGAUAGCAAUAUUACGAAUA | 0.53 ± 0.21 |  |
| GGAUAGCAAUAUUACGACAG | -2.36 ± 0.29 | -4.21 ± 0.37 |
| GGAUAGCAAUAUUACGACCG | -1.08 ± 0.28 | -1.59 ± 0.26 |
| GGAUAGCAAUAUUACGACGA | -0.57 ± 0.1 | -1.43 ± 0.12 |
| GGAUAGCAAUAUUACGACGG | -2.87 ± 0.48 |  |
| GGAUAGCAAUAUUACGACUC | 0.298 ± 0.23 | -0.498 ± 0.16 |
| GGAUAGCAAUAUUACGAGAG | -3.09 ± 0.47 | -1.8 ± 0.23 |
| GGAUAGCAAUAUUACGAGCG | -0.0359 ± 0.088 | -0.76 ± 0.1 |
| GGAUAGCAAUAUUACGAGUG | -1.41 ± 0.14 | -3.38 ± 0.22 |
| GGAUAGCAAUAUUACGAUAC | -1.8 ± 0.16 | -1.23 ± 0.13 |
| GGAUAGCAAUAUUACGAUGA | -0.858 ± 0.14 | -1.04 ± 0.15 |
| GGAUAGCAAUAUUACGCAUA | -2.04 ± 0.39 | -1.88 ± 0.45 |
| GGAUAGCAAUAUUACGCCUC |  | -2.02 ± 0.32 |
| GGAUAGCAAUAUUACGGCAC | -0.0176 ± 0.17 | -1.16 ± 0.14 |
| GGAUAGCAAUAUUACGGCAU | 0.598 ± 0.11 | -0.507 ± 0.09 |
| GGAUAGCAAUAUUACGGGUA | 0.0404 ± 0.13 | -2.41 ± 0.16 |
| GGAUAGCAAUAUUACGGGUC | -2.64 ± 0.29 | -4.23 ± 0.46 |
| GGAUAGCAAUAUUACGUCCA | -0.317 ± 0.19 | -1.4 ± 0.17 |
| GGAUAGCAAUAUUACGUGAC | -1.46 ± 0.26 | -2.63 ± 0.35 |
| GGAUAGCAAUAUUACGUGCA | 0.203 ± 0.12 | -1.3 ± 0.11 |

| Sequence | self-splicing fitness (ln) (37 °C) | self-splicing fitness (ln) (30 °C) |
| --- | --- | --- |
| GGAUAGCAAUAUUACGUUAU | -3.28 ± 0.23 | -4.06 ± 0.24 |
| GGAUAGCAAUAUUACGUUUA | 0.714 ± 0.14 | -1.02 ± 0.16 |
| GGCAAGCAAUAUUACGAGAA | -1.74 ± 0.26 | -1.8 ± 0.29 |
| GGCAAGCAAUAUUACGAGAG | -2.26 ± 0.15 | -3.94 ± 0.24 |
| GGCAAGCAAUAUUACGAGAU | -0.168 ± 0.15 | -2.56 ± 0.21 |
| GGCAAGCAAUAUUACGAGCA | -0.381 ± 0.14 | -0.434 ± 0.13 |
| GGCAAGCAAUAUUACGCGGG | -3.23 ± 0.26 | -3.73 ± 0.21 |
| GGCAAGCAAUAUUACGGAAC | 0.485 ± 0.21 | -1.46 ± 0.13 |
| GGCAAGCAAUAUUACGGACU | 0.777 ± 0.096 | 0.0032 ± 0.071 |
| GGCAAGCAAUAUUACGGAGC | 0.0393 ± 0.25 | -1.36 ± 0.2 |
| GGCAAGCAAUAUUACGGGAA | -1.16 ± 0.13 | -1.34 ± 0.12 |
| GGCAAGCAAUAUUACGGUAC | -0.752 ± 0.09 | -0.729 ± 0.072 |
| GGCAAGCAAUAUUACGUACU | 0.344 ± 0.088 | -0.208 ± 0.072 |
| GGCAAGCAAUAUUACGUCAA | -0.756 ± 0.12 | -1.84 ± 0.14 |
| GGCAAGCAAUAUUACGUCGA | -0.561 ± 0.13 | -0.765 ± 0.13 |
| GGCAAGCAAUAUUACGUCUG | -1.09 ± 0.094 | -3.13 ± 0.18 |
| GGCAAGCAAUAUUACGUGUU | -1.83 ± 0.076 | -1.96 ± 0.059 |
| GGCAAGCAAUAUUACGUUCC | -0.714 ± 0.14 | -1.43 ± 0.11 |
| GGCAAGCAAUAUUACGUUCG | -0.196 ± 0.08 | -0.0493 ± 0.065 |
| GGCAAGCAAUAUUACGUUUU | 0.186 ± 0.082 | -0.0842 ± 0.054 |
| GGCCAGCAAUAUUACGAAGG | -2.62 ± 0.33 |  |
| GGCCAGCAAUAUUACGAAUC | 0.822 ± 0.14 | -0.266 ± 0.11 |
| GGCCAGCAAUAUUACGAGAU | -2.82 ± 0.24 | -2.68 ± 0.18 |
| GGCCAGCAAUAUUACGAGGA | -1.26 ± 0.15 |  |
| GGCCAGCAAUAUUACGAGGU | -2.45 ± 0.32 | -3.26 ± 0.45 |

| Sequence | self-splicing fitness (ln) (37 °C) | self-splicing fitness (ln) (30 °C) |
| --- | --- | --- |
| GGCCAGCAAUAUUACGAGUA | -2.05 ± 0.12 | -2.59 ± 0.12 |
| GGCCAGCAAUAUUACGAUAU | -1.78 ± 0.1 | -1.67 ± 0.08 |
| GGCCAGCAAUAUUACGCAUA | -0.945 ± 0.12 | -1.52 ± 0.095 |
| GGCCAGCAAUAUUACGCGGG | -3.29 ± 0.37 | -3.29 ± 0.48 |
| GGCCAGCAAUAUUACGCGUA | -0.484 ± 0.1 | -1.07 ± 0.11 |
| GGCCAGCAAUAUUACGGAGA | -0.565 ± 0.086 | -0.788 ± 0.095 |
| GGCCAGCAAUAUUACGGCUG | -0.562 ± 0.2 | -1.41 ± 0.12 |
| GGCCAGCAAUAUUACGGGCG | -2.02 ± 0.26 | -2.13 ± 0.2 |
| GGCCAGCAAUAUUACGGUUU | -0.401 ± 0.074 | -0.995 ± 0.067 |
| GGCCAGCAAUAUUACGUCCU | -0.4 ± 0.17 | -1.47 ± 0.21 |
| GGCCAGCAAUAUUACGUGCG | -0.564 ± 0.079 | -1.17 ± 0.06 |
| GGCCAGCAAUAUUACGUUCG | -1.75 ± 0.11 | -2.66 ± 0.12 |
| GGCCAGCAAUAUUACGUUGC | -0.74 ± 0.081 | -1.58 ± 0.071 |
| GGCCAGCAAUAUUACGUUUC | -0.362 ± 0.089 | -1.4 ± 0.095 |
| GGCGAGCAAUAUUACGAGAA | -2.57 ± 0.41 |  |
| GGCGAGCAAUAUUACGAUAG | -2.67 ± 0.38 | -1.89 ± 0.18 |
| GGCGAGCAAUAUUACGCCCA | -0.478 ± 0.33 | -2.15 ± 0.42 |
| GGCGAGCAAUAUUACGCGAA | -1.33 ± 0.16 | -2.45 ± 0.2 |
| GGCGAGCAAUAUUACGCUUU | -1.22 ± 0.19 | -2.76 ± 0.23 |
| GGCGAGCAAUAUUACGGAAA |  | -1.06 ± 0.48 |
| GGCGAGCAAUAUUACGGAAG | -1.04 ± 0.2 | -4.21 ± 0.3 |
| GGCGAGCAAUAUUACGGAUC | 0.039 ± 0.075 | -0.443 ± 0.053 |
| GGCGAGCAAUAUUACGGCUG | -0.389 ± 0.28 | -0.315 ± 0.15 |
| GGCGAGCAAUAUUACGGUUC | -0.156 ± 0.13 | -1.46 ± 0.13 |
| GGCGAGCAAUAUUACGGUUU | 0.0414 ± 0.11 | -1.06 ± 0.076 |

| Sequence | self-splicing fitness (ln) (37 °C) | self-splicing fitness (ln) (30 °C) |
| --- | --- | --- |
| GGCGAGCAAUAUUACGUACA | 0.151 ± 0.15 | -1 ± 0.18 |
| GGCGAGCAAUAUUACGUGCA | -0.435 ± 0.098 | -0.905 ± 0.085 |
| GGCGAGCAAUAUUACGUUAA | -1.4 ± 0.2 | -2.51 ± 0.19 |
| GGCGAGCAAUAUUACGUUAC | -2.03 ± 0.32 | -3.24 ± 0.33 |
| GGCUAGCAAUAUUACGAAAU | 0.0518 ± 0.2 | -1.67 ± 0.22 |
| GGCUAGCAAUAUUACGACGU | 1.15 ± 0.28 | -0.0784 ± 0.15 |
| GGCUAGCAAUAUUACGAGAC |  | -3.62 ± 0.44 |
| GGCUAGCAAUAUUACGAGCA | -0.213 ± 0.12 | -0.589 ± 0.081 |
| GGCUAGCAAUAUUACGAUUU | 0.68 ± 0.12 | -0.855 ± 0.093 |
| GGCUAGCAAUAUUACGCAGU |  | -1.78 ± 0.34 |
| GGCUAGCAAUAUUACGCGAA | -1.27 ± 0.08 | -1.83 ± 0.085 |
| GGCUAGCAAUAUUACGCUCC |  | -2.32 ± 0.26 |
| GGCUAGCAAUAUUACGGAAC | -0.447 ± 0.13 | -1.09 ± 0.1 |
| GGCUAGCAAUAUUACGGAUU | 0.405 ± 0.16 | -0.369 ± 0.13 |
| GGCUAGCAAUAUUACGGCCG | -0.656 ± 0.22 | -1.45 ± 0.23 |
| GGCUAGCAAUAUUACGGCUA | -0.282 ± 0.42 | 0.235 ± 0.32 |
| GGCUAGCAAUAUUACGGGCU | -3.05 ± 0.3 |  |
| GGCUAGCAAUAUUACGGGGU | -1.29 ± 0.11 | -2.25 ± 0.1 |
| GGCUAGCAAUAUUACGUGGG | -1.91 ± 0.2 | -2.64 ± 0.17 |
| GGCUAGCAAUAUUACGUGGU | -2.13 ± 0.24 | -3.18 ± 0.23 |
| GGCUAGCAAUAUUACGUUGA | 0.455 ± 0.14 | -1.26 ± 0.13 |
| GGCUAGCAAUAUUACGUUUG | -1.45 ± 0.12 | -2.86 ± 0.11 |
| GGGAAGCAAUAUUACGAAGA | -0.943 ± 0.23 |  |
| GGGAAGCAAUAUUACGAGAA | -1.78 ± 0.36 | -2.16 ± 0.48 |
